Reference: the supplement of paper PMC9170038

Tested on: MS2 coat protein
Assay: apparent KD of MS2 coat protein; designed switch direction (-1 OFF switch, 1 ON switch): -1; higher = weaker reporter binding
Outline: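 Designed RNA switches were transcribed on Illumina chips by stalled E. coli RNA polymerase and titrated with SNAP-549-labelled MS2 coat protein from 0.7 or 1.5 nM, doubling to 3 µM. Step length ran from 0.8–1.5 h at the lowest concentration to 10–20 min at the highest. The apparent KD is the median over clusters for each design, from curve-fitted normalised cluster fluorescence.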

[1] = Eterna round: R95, input ligand: FMN 200 uM
[2] = Eterna round: R95, input ligand: microRNA oligo, concentration not stated
[3] = Eterna round: R95, input ligand: none
[4] = input ligand: microRNA oligo, concentration not stated

With “ACUCCAUAUGUGAGGAUAUGGAAAGAAAAUAAAAUCCAGAAGGCACAUGAGGAUCACCCAUGUACCGCAGGGAC [BmEX4 A.29] (Eterna round: R97, puzzle: Brourd's mod of Exclusion 4)” the “apparent KD of MS2 coat protein” value (input ligand: FMN 200 uM) was 17.7 nM and the “apparent KD of MS2 coat protein” value (input ligand: none) was 14.5 nM.

For “ACUGGAGCAGGAUAUGCAUUCGUGCUUCGGCACGUAAGGUCACAUGAGGAUCACCCAUGUAGAAGGGCUCCAGU [E2/6-D1] (Eterna round: R97, puzzle: Exclusion 2)”, the “apparent KD of MS2 coat protein” value (input ligand: FMN 200 uM) was 32.9 nM and the “apparent KD of MS2 coat protein” value (input ligand: none) was 19.7 nM.

With “ACUGGUCGAGGAUAUACAUGAGGAUCACCCAUGUUGAUCAACUGCCGAUAGGCAGAAUGUAGAAGGCGACCAGU [E3/7-A2] (Eterna round: R97, puzzle: Exclusion 3)” the “apparent KD of MS2 coat protein” value (input ligand: FMN 200 uM) was 119 nM and the “apparent KD of MS2 coat protein” value (input ligand: none) was 942 nM.

“ACUGUGUAAGGAUAUGUGAUACACUGCUAUUUAGGUGAGUCACAGAAGGUACAUGAGGAUCACCCAUGUCCGGG [Eternabot (L2) Solution 32] (Eterna round: R97, puzzle: Exclusion 4)” was tested, and the “apparent KD of MS2 coat protein” value (input ligand: FMN 200 uM) was 222 nM and the “apparent KD of MS2 coat protein” value (input ligand: none) was 172 nM.

With “ACUUACUGAGGAUAUACAUAGAUUUACAUGAGGAUCACCCAUGUUCCUCUAAGUAUAUAUGUAGAAGGCAGAAGGU [Mat - Exclusion 5 - JL Mod - D42] (Eterna round: R97, puzzle: Exclusion 5)” the “apparent KD of MS2 coat protein” value (input ligand: FMN 200 uM) was 177 nM and the “apparent KD of MS2 coat protein” value (input ligand: none) was 214 nM.

In the case of “ACUUAUAGAGGAUAUACAGAUUAUUACAUGAGGAUCACCCAUGUUCUUCAAUGUAUAUAUGUAGAAGGCUAAGGAU [Mat - Exclusion 5 - JL Mod - D8] (Eterna round: R97, puzzle: Exclusion 5)”, the “apparent KD of MS2 coat protein” value (input ligand: FMN 200 uM) is reported as 192 nM and the “apparent KD of MS2 coat protein” value (input ligand: none) is reported as 75.9 nM.

For “ACUUCACAUGAGGAUCACCCAUGUGAGGAUAUCGUCGAGGAUGUAAUGCCAUCCGUGGCGAGAAGGCGCAUGGG [Exclusion 1 (Mod1.1 solution 40 by Eternabot)] (Eterna round: R97, puzzle: Exclusion 1)”, the “apparent KD of MS2 coat protein” value (input ligand: FMN 200 uM) was 28.5 nM and the “apparent KD of MS2 coat protein” value (input ligand: none) was 79.8 nM.

“ACUUGCUAUUUGCUCGUCUUAUUUUUGUUUAUUUACUAUACAUGAGGAUCACCCAUGUUAUAUUUAAGGGUGUGAUA [JR_SV3TOV2_Sub074] (puzzle: Sensor v3, turn-off variant 2)” was tested, and the “apparent KD of MS2 coat protein” value [1] was 270 nM, the “apparent KD of MS2 coat protein” value [2] was 334 nM and the “apparent KD of MS2 coat protein” value [3] was 259 nM.

With “ACUUGUAGAGGAUAUACGAGGGCCCAAGCGGCGAGAGCCGCACAUGAGGAUCACCCAUGUAGAAGGCUACUAUU [JL-ex2-4.25 ViennaUCT mod] (Eterna round: R97, puzzle: Exclusion 2)” the “apparent KD of MS2 coat protein” value (input ligand: FMN 200 uM) was 374 nM and the “apparent KD of MS2 coat protein” value (input ligand: none) was 116 nM.

With “ACUUGUUGUCCUUGAUAUUACAUGAGGAUCACCCAUGUUAUUGUGAUUUUGAUGUGUAAGUUUGUUGCUCGUCUUAU [JR_STOV1_Sub064] (Eterna round: R97, puzzle: Sensor, turn-off variant 1)” the “apparent KD of MS2 coat protein” value (input ligand: FMN 200 uM) was 70.2 nM and the “apparent KD of MS2 coat protein” value (input ligand: none) was 71.5 nM.

For “ACUUGUUGUCCUUGAUUUUACAUGAGGAUCACCCAUGUUAUUUUGAUUAUGAUGUGUAAGUUUGUUGCUCGUUUUAU [JR_STOV1_Sub067] (Eterna round: R97, puzzle: Sensor, turn-off variant 1)”, the “apparent KD of MS2 coat protein” value (input ligand: FMN 200 uM) was 61.9 nM and the “apparent KD of MS2 coat protein” value (input ligand: none) was 67.4 nM.

For “AGAAAACGAGGAUAUACGUGCAUAUUCUCGCCCAAUGGGCAACAUGAGGAUCACCCAUGUAGAAGGCGUAAAGA [Dienoror] (puzzle: Exclusion 2)”, the “apparent KD of MS2 coat protein” value [2] was 34.6 nM.

“AGAAAUGCCCAUGGCCACAAGCUUUUUGCUUGUCUUACUACAUGAGGAUCACCCAUGUACCAUGGGCUCCUGAUAAU [Anxemaes] (puzzle: Sensor v3, turn-off variant 2)” was tested, and the “apparent KD of MS2 coat protein” value [1] was 13.8 nM, the “apparent KD of MS2 coat protein” value [2] was 9.75 nM and the “apparent KD of MS2 coat protein” value [3] was 10.4 nM.

For “AGAAAUGCCCAUGGCCGCAAGCUUUUUGCUUGUCUUACCACAUGAGGAUCACCCAUGUGACAUGGGCUCCUGAUAAU [Bivequ] (puzzle: Sensor v3, turn-off variant 2)”, the “apparent KD of MS2 coat protein” value [1] was 13.7 nM, the “apparent KD of MS2 coat protein” value [2] was 10.7 nM and the “apparent KD of MS2 coat protein” value [3] was 12.1 nM.

In the case of “AGAAGUAGUAACCGAUCCUACAUGAGGAUCACCCAUGUAGCAAGACGUGCACGCGAAGCUCGUCAGACUACCAGAUG [salish99_TOv1_r3_020] (puzzle: Sensor v3, turn-off variant 1)”, the “apparent KD of MS2 coat protein” value [1] is reported as 159 nM, the “apparent KD of MS2 coat protein” value [2] is reported as 252 nM and the “apparent KD of MS2 coat protein” value [3] is reported as 242 nM.

“AGAAGUGCCGAGGAUAUCCAGGCAAUCUCGUUCGGAGAAGGCGGCACUUGAGGAUCACCCAAGUGCUCCAAAAG [Essoatxe] (Eterna round: R97, puzzle: Exclusion 6)” was tested, and the “apparent KD of MS2 coat protein” value (input ligand: FMN 200 uM) was 59.2 nM and the “apparent KD of MS2 coat protein” value (input ligand: none) was 18.9 nM.

“AGACAGUCAGGAUAUACAUGAGGAUCACCCAUGUUGAGAAGAGAAAGGGCAGGAAGAGGUAGAAGGGACAAGAA [JR_Exclu3_Sub034] (puzzle: Exclusion 3)” was tested, and the “apparent KD of MS2 coat protein” value [1] was 21.3 nM, the “apparent KD of MS2 coat protein” value [2] was 25.7 nM and the “apparent KD of MS2 coat protein” value [3] was 29.3 nM.

With “AGAGAAUAGGUAGGAUAUCUUAAUAGAAAGAAUAGAGAAGGACCACAUGAGGAUCACCCAUGUGAUGUCUUGAGACUACAUGGU [Prohibition 32 - Jieux - Exclusion NG 1] (Eterna round: R96, puzzle: Exclusion NG 1)” the “apparent KD of MS2 coat protein” value [4] was 13.3 nM.

In the case of “AGAGAAUAGUCAGGAUAUCUUAAUAGAAAGAAUAGAGAAGGGACACAUGAGGAUCACCCAUGUGAAGUCUUGAGACUACAUGGU [Prohibition 30 - Jieux - Exclusion NG 1] (Eterna round: R96, puzzle: Exclusion NG 1)”, the “apparent KD of MS2 coat protein” value (input ligand: FMN 200 uM) is reported as 108 nM, the “apparent KD of MS2 coat protein” value [4] is reported as 27.4 nM and the “apparent KD of MS2 coat protein” value (input ligand: none) is reported as 35.3 nM.

“AGAGAGUCAGGAUAUCGAAGGUAGAGAAAAGGAGAGAGGUACGAGAAGGGACAUGAGGAUCACCCAUGUAGGUG [JR_Exclusion4)Sub014] (puzzle: Exclusion 4)” was tested, and the “apparent KD of MS2 coat protein” value [1] was 526 nM, the “apparent KD of MS2 coat protein” value [2] was 286 nM and the “apparent KD of MS2 coat protein” value [3] was 381 nM.

“AGAGAGUCAGGAUAUCGAAGGUAGAGAAAAGGAGAGUGGUACGAGAAGGGACAUGAGGAUCACCCAUGUAGGUG [JR_Exclusion4)Sub013] (puzzle: Exclusion 4)” was tested, and the “apparent KD of MS2 coat protein” value [1] was 343 nM, the “apparent KD of MS2 coat protein” value [2] was 431 nM and the “apparent KD of MS2 coat protein” value [3] was 441 nM.

With “AGAGCACAUGAGGAUCACCCAUGUCAGGAUAUCGACUGAACAGCUUCGGCUGUUCAGUCGAGAAGGGACAAUUA [Brourdxlusion 7 - Jieux - Exclusion 1] (Eterna round: R97, puzzle: Exclusion 1)” the “apparent KD of MS2 coat protein” value (input ligand: FMN 200 uM) was 19.4 nM and the “apparent KD of MS2 coat protein” value (input ligand: none) was 35 nM.

In the case of “AGAGGACAUGAGGAUCACCCAUGUAAGGAUAUGCGGAGAGUUUGGAGAGGUCGGGUAGGCAGAAGGUACAGGAG [JR_Exclu1_Sub050] (Eterna round: R96, puzzle: Exclusion 1)”, the “apparent KD of MS2 coat protein” value (input ligand: FMN 200 uM) is reported as 48 nM, the “apparent KD of MS2 coat protein” value [4] is reported as 41 nM and the “apparent KD of MS2 coat protein” value (input ligand: none) is reported as 86.4 nM.

With “AGAGGACAUGAGGAUCACCCAUGUAAGGAUAUGCGGAGAGUUUGGAGAGGUCGGGUAGGCAGAAGGUACAGGAG [JR_Exclu1_Sub050] (puzzle: Exclusion 1)” the “apparent KD of MS2 coat protein” value [1] was 82.2 nM, the “apparent KD of MS2 coat protein” value [2] was 92.5 nM and the “apparent KD of MS2 coat protein” value [3] was 89.4 nM.

“AGAGUACAUGAGGAUCACCCAUGUUAGGAUAUGCAUAAUAAGAAGAAGAGAAGAGAGAGCAGAAGGAACAAGAG [Ex 1 M1] (puzzle: Exclusion 1)” was tested, and the “apparent KD of MS2 coat protein” value [1] was 42.5 nM, the “apparent KD of MS2 coat protein” value [2] was 48 nM and the “apparent KD of MS2 coat protein” value [3] was 57.8 nM.
